{
  "source": "patent US20120003668A1",
  "about": "“HIGH RESOLUTION COMPLEX STRUCTURE AND ALLOSTERIC EFFECTS OF LOW MOLECULAR WEIGHT ACTIVATORS ON THE PROTEIN KINASE PDK1” (UNIVERSITAET DES SAARLANDES, priority 2008, published 2012)",
  "key": {"[1]": {"biological_target": "T1, PDK1[Thr226Trp] (Homo sapiens, UniProt O15530, T226W)", "T1 construct": "The catalytic domain (CD) of PDK1 50-359 and its mutants Phe224Trp and Thr226Trp were expressed in insect cells and purified; made in house; host or cells: insect cells", "T1 sequence (O15530 50-359 T226W)": "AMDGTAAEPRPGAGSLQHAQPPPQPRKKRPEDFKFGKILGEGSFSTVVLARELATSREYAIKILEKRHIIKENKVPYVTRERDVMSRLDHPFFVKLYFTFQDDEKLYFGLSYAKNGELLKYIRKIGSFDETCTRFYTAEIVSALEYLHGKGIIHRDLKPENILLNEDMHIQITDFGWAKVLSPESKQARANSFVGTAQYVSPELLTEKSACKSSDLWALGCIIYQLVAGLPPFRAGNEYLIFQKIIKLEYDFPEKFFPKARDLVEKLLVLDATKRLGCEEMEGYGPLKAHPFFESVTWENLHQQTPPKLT", "assay": "PDK1 protein kinase activity test with T308tide substrate, Thr226Trp mutant", "format": "biochemical", "settings": "PDK1 CD 50-359, T308tide as substrate", "protocol": "(§1) Protein kinase activity tests: PDK1 activity tests were performed essentially as previously described (Biondi, R. M. et al., Embo. J. 20:4380-4390 (2001); Balendran, A. et al., J. Biol. Chem. 275:20806-20813 (2000); Biondi, R. M. et al., Embo. J. 19:979-988 (2000)) using T308tide as a substrate for PDK1. In brief, PDK1 activity assay was performed at room temperature (22° C.) in a 20 μl mix containing 50 mM Tris pH 7.5, 0.05 mg/ml BSA, 0.1% β-mercaptoethanol, 10 mM MgCl2, 100 μM [γ^32P]ATP (5-50 cpm/pmol), 0.003% Brij, 150 ng PDK1, and T308tide (from 0.1 to 1 mM). When appropriate, the PDK1 activity assay was performed in a 96 well format and 4 μl aliquots spotted with on p81 phosphocellulose papers (Whatmann) using ep motion 5070 (Eppendorf), washed in 0.01% phosphoric acid, dried, and then exposed and analysed using PhosphoImager technology (Typhoon, GE Healthcare). Activity measurements were performed in duplicates with less than 10% difference between pairs. Experiments were repeated at least twice. PDK1 specific activity at 22° C. was approximately 0.25 U/mg when the substrate concentration was 0.1 mM T308tide. […]"}, "[2]": {"biological_target": "T2, PDK1 Tyr126 mutant (Homo sapiens, UniProt O15530, Y126A)", "T2 sequence (O15530 1-556 Y126A)": "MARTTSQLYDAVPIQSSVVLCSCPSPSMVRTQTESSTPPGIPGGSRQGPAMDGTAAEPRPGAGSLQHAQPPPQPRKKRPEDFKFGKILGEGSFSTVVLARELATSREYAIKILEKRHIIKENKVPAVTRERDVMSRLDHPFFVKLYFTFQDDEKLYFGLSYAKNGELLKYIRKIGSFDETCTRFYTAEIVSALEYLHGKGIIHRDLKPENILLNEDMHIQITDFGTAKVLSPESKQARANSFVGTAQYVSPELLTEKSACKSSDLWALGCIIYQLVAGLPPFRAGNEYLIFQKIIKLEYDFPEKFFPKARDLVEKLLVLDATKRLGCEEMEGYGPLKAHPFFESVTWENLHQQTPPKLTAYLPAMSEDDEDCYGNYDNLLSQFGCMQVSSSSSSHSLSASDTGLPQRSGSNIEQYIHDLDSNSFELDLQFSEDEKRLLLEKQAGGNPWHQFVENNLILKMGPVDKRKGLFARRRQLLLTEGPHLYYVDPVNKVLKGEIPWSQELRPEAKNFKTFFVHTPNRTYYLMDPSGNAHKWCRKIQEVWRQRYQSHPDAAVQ", "assay": "Biacore binding of PIFtide (data of Komander et al. 2005)", "settings": "applicant's estimate from the published biacore data"}, "[3]": {"biological_target": "T3, PDK1[Phe224Trp] (Homo sapiens, UniProt O15530, F224W)", "T3 construct": "The catalytic domain (CD) of PDK1 50-359 and its mutants Phe224Trp and Thr226Trp were expressed in insect cells and purified; made in house; host or cells: insect cells", "T3 sequence (O15530 50-359 F224W)": "T1 sequence (O15530 50-359 T226W) with F175W, W177T", "assay": "PDK1 protein kinase activity test with T308tide substrate, Phe224Trp mutant", "format": "biochemical", "settings": "PDK1 CD 50-359, T308tide as substrate", "protocol": "as §1"}, "[4]": {"biological_target": "T4, PDK1 CD wt (Homo sapiens, UniProt O15530)", "T4 construct": "PDK1 CD (50-359), wt (0.35 μM), PDK1 [Phe224Trp] or PDK1 [Thr226Trp] were injected onto the system; GST (N); made in house; host or cells: insect cells", "T4 sequence (O15530 50-359)": "T1 sequence (O15530 50-359 T226W) with W177T", "assay": "Surface plasmon resonance (BiaCore) on biotin-P-HM-S6K chip", "format": "binding", "settings": "protein pre-incubated with PIFtide", "protocol": "Surface Plasmon resonance (BiaCore) and alpha-screen interaction and displacement assays: Binding of GST-PDK1 to a P-HM-polypeptide derived from S6K1 shown in FIG. 6 was analysed by surface plasmon resonance on a BiaCore 3000 system using a streptavidin-coated Sensor chip (SA) and biotin-P-HM-polypeptide, as previously described (Biondi, R. M. et al., Embo. J. 20:4380-4390 (2001). The interaction of His-PDK1 with biotin-PIFtide and the displacement by compounds shown in FIG. 3 was performed using the alpha-screen Ni-Chelate kit (Perkin Elmer) on an Envision 2104 multilabel system (Perkin Elmer).\nBiaCore analysis was performed as described previously (Biondi, R. M. et al., Embo. J. 19:979-988 (2000)). […] Since both mutants were performed on the same construct of PDK1, their mass should be very similar and therefore should also produce 600RU when all biotin-(P)HM-S6K polypeptides on the same chip are bound to the mutant PDK1 proteins. Unfortunately, when mutant PDK1 Phe224Trp and PDK1 Thr226Trp were analysed, the injection of the mutants at concentrations higher than 1.3 μM prompted unspecific effects, therefore making difficult the evaluation. […]"}},
  "note": "Where a chain is given by its changes, count along the chain named.",
  "data": [
    {"sequence": "REPRILSEEEQEMFRDFDYIADWC [PIFtide, polypeptide derived from the C-terminal 24 amino acids of the PDK1 substrate PRK2]", "values": [
      {"measurement": "activation of PDK1[Thr226Trp]", "setting": "[1]", "value": "not activated"},
      {"measurement": "decreased affinity for PIFtide of the Tyr126 mutant", "setting": "[2]", "value": "over 30 fold"},
      {"measurement": "activation of PDK1[Phe224Trp]", "setting": "[3]", "value": "activated"},
      {"measurement": "displacement by PIFtide of PDK1 binding to biotin-P-HM-S6K", "setting": "[4]", "value": "displaced"}
    ]}
  ]
}
